Source: the supplement of paper PMC10126150
± gives the standard deviation of the averaged measurements.

system: ATP; assay: switch fluorescence ratio, 500 uM ATP over buffer (Cy3 cluster intensity, sum of 5 cycles each) (fold (ratio)); higher = stronger signal-on switching upon ATP binding; sequences stand for … in TCGTCGGCAGCGTCAGATGTGTATAAGAGACAGTTTTTTTTTTTTTTTTTTTTTTTTT…TC; conditions: aptamer strand: ATP DNA aptamer (quencher-CACCTGGGGGAGTATTGCGGAGGAAGG + anchor), 100 nM annealed; ATP concentration: 500 uM
Procedure, shortened: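 Clusters with intensities outside 100-1000 RFU were excluded. The remaining Cy3-labelled switching-strand clusters on a modified Illumina MiSeq flow-cell had been annealed to 100 nM quencher-labelled ATP aptamer and imaged in selection buffer, then after 15 min with 500 uM ATP at 22 °C, for five cycles separated by NaOH stripping and re-annealing. The fluorescence ratio, averaged per switch-domain sequence, is each cluster's summed target-cycle Cy3 intensity over its summed buffer-cycle Cy3 intensity.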
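Further: ATP exposure 15 min at 22 °C before imaging.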

TCTGACAGTT and CCTGAGTGTA are within error of each other in switch fluorescence ratio: 1.04 ± 0.029 for the first, 1 ± 0.024 for the second.

First: GTGTTATGAT
Second: TTGAGTGGGA
The switch fluorescence ratio of the first is lower: 0.9574 ± 0.0068 for the first, 0.989 ± 0.02 for the second.

TGAGGCTAGG and TGTGCAAAGG are within error of each other in switch fluorescence ratio: 1.02 ± 0.017 for the first, 0.997 ± 0.042 for the second.

First: CAAAGGGGCG
Second: TCACATTATT
The switch fluorescence ratio of the first is lower: 0.975 ± 0.045 for the first, 1.04 ± 0.02 for the second.

AGTGTTTGGC and GGTTTTTGGA are within error of each other in switch fluorescence ratio: 1.01 ± 0.022 for the first, 0.981 ± 0.038 for the second.

GGTAGGGCGT and GATTGGTATT are within error of each other in switch fluorescence ratio: 1.01 ± 0.027 for the first, 0.995 ± 0.044 for the second.

TAATTAACAT and AGATAGGGGG are within error of each other in switch fluorescence ratio: 0.9883 ± 0.0092 for the first, 1 ± 0.034 for the second.

Compared with TAGGGGCTCG, ACGTACTTGA is higher in switch fluorescence ratio: 0.999 ± 0.032 for the first, 1.52 ± 0.085 for the second.

Going from GATTCAAGTG to TGGATGTCAT, the switch fluorescence ratio rises from 0.96 ± 0.022 to 1.07 ± 0.059.

GGTGGTACTG and GGCAAAGGGG are the same in switch fluorescence ratio: 1.01 ± 0.037 for the first, 1.01 ± 0.041 for the second.

First: GCGGGGGGTA
Second: ACGGCATTAA
The switch fluorescence ratio of the first is lower: 1.01 ± 0.03 for the first, 1.165 ± 0.0043 for the second.

CCATTGTTAT and TGGGCGAGAG are within error of each other in switch fluorescence ratio: 0.988 ± 0.017 for the first, 1.02 ± 0.034 for the second.

First: GGGGGTGATC
Second: CGACTGGAAC
The switch fluorescence ratio of the first is lower: 0.979 ± 0.024 for the first, 1.207 ± 0.008 for the second.

ATAAGGTCGT and GGTTATCGTA are the same in switch fluorescence ratio: 1.02 ± 0.039 for the first, 1.02 ± 0.011 for the second.

Going from AATGGGCAAG to GGCAGCGTGG, the switch fluorescence ratio falls from 1.05 ± 0.015 to 0.994 ± 0.041.

AGAGGGGAT and GGGTAGTCTG are the same in switch fluorescence ratio: 1 ± 0.021 for the first, 1 ± 0.049 for the second.

CTAGTTAGGC and TAACGTTTAT are within error of each other in switch fluorescence ratio: 0.9844 ± 0.0091 for the first, 1.01 ± 0.032 for the second.

AATATTTAGG and AAGCCGTTTG are within error of each other in switch fluorescence ratio: 0.987 ± 0.035 for the first, 1.07 ± 0.088 for the second.

TTTATATTGG and TTGGGGAACG are within error of each other in switch fluorescence ratio: 1.034 ± 0.00088 for the first, 1.41 ± 0.62 for the second.

Going from TTGCCAGGGA to CCTAGTTGAA, the switch fluorescence ratio rises from 0.995 ± 0.014 to 1.03 ± 0.015.

Compared with GCACGAGCCC, TTGTCGGGTG is lower in switch fluorescence ratio: 1.316 ± 0.008 for the first, 1.03 ± 0.089 for the second.

Compared with TAAATTTTTC, CGAGCTGGTT is lower in switch fluorescence ratio: 1.042 ± 0.008 for the first, 0.991 ± 0.0027 for the second.

TGCCTTGCCA and ATGAAGAGCG are within error of each other in switch fluorescence ratio: 1 ± 0.012 for the first, 0.994 ± 0.015 for the second.

GAGGTGGGGG and CTAATATCTC are within error of each other in switch fluorescence ratio: 0.993 ± 0.029 for the first, 1.016 ± 0.01 for the second.

Compared with CCGGGAGTGT, GGGTGGACAG is lower in switch fluorescence ratio: 1.12 ± 0.013 for the first, 0.975 ± 0.017 for the second.

AGGGAGTTAA and GGGTTTACGA are within error of each other in switch fluorescence ratio: 0.973 ± 0.054 for the first, 1.01 ± 0.074 for the second.

Compared with GGAACCGGTA, TAGTATATTT is lower in switch fluorescence ratio: 1.02 ± 0.012 for the first, 0.954 ± 0.018 for the second.

Compared with CAGATCACGA, AAGTTCACGG is higher in switch fluorescence ratio: 1.01 ± 0.017 for the first, 1.06 ± 0.025 for the second.

TTATAGTGTT and AGAGCTCTTT are within error of each other in switch fluorescence ratio: 0.994 ± 0.012 for the first, 1 ± 0.029 for the second.

CAGGTATGT and TTGATTCTGA are within error of each other in switch fluorescence ratio: 0.991 ± 0.015 for the first, 0.992 ± 0.034 for the second.

GTGTTATCGC and TGGGCCTCCA are within error of each other in switch fluorescence ratio: 1.011 ± 0.0015 for the first, 1 ± 0.036 for the second.

GCATCGGGGT and GTGGTAATTG are within error of each other in switch fluorescence ratio: 1 ± 0.032 for the first, 0.972 ± 0.016 for the second.

TTTGGGTATT and ATCGAAAAAC are within error of each other in switch fluorescence ratio: 0.9684 ± 0.0013 for the first, 1.01 ± 0.05 for the second.

ATGTCGTGGC and CGGGTTCAGA are within error of each other in switch fluorescence ratio: 1 ± 0.048 for the first, 1.051 ± 0.0054 for the second.

TACGCCGGTA and TATGGGGAGT are within error of each other in switch fluorescence ratio: 0.961 ± 0.032 for the first, 0.981 ± 0.046 for the second.

GGGTTCATGT and CCGTTTGCAG are within error of each other in switch fluorescence ratio: 1.006 ± 0.0027 for the first, 1.13 ± 0.15 for the second.

TAGTTATTGA and TCTTAAAGAT are within error of each other in switch fluorescence ratio: 1.01 ± 0.038 for the first, 1.06 ± 0.022 for the second.

Going from AAGCCGGAGC to TACTCTGGAA, the switch fluorescence ratio rises from 1.02 ± 0.053 to 4.15 ± 0.18.

GTGTGAGCGG and TAATATGGAG are the same in switch fluorescence ratio: 0.9901 ± 0.0052 for the first, 0.99 ± 0.034 for the second.

ATTTAGTGGT and GGTGGACAAC are within error of each other in switch fluorescence ratio: 1 ± 0.028 for the first, 0.997 ± 0.013 for the second.

First: CGGCGCTGGA
Second: CGAAGTATAG
The switch fluorescence ratio of the first is lower: 1.01 ± 0.055 for the first, 1.37 ± 0.038 for the second.

First: GTTGAGGGTC
Second: CCGAGGGCAG
The switch fluorescence ratio of the first is lower: 0.993 ± 0.021 for the first, 2.75 ± 0.36 for the second.

Sequence TTTTCTGAGG has a switch fluorescence ratio of 1.01 ± 0.044.
